This note sets out measurements from patent US20130011427A1 (priority 2009, published 2013).

For assay [1], the target named is HLA-A2.1 (HHD monochain) (human; murine). Put plainly: cell-based or functional assay.
Assay [2] relates to HLA-DR2 (DRB1*1501) Tg mice, CD8-depleted splenocytes. It is filed as cell-based, mouse.
The target in assay [3] is HLA-DR2 (chimeric HLA-DRA1*0101/DRB1*1501 with I-E domains) (human; murine) (UniProt Q8BHN5). Put plainly: cell-based or functional assay.
Assay [4] has as its system HLA-A2.1 (HLA-A*0201) Tg mice, CD4-depleted splenocytes. It counts as cell-based, mouse.

UniProt Q8BHN5, sequence (Q8BHN5 whole entry, stated change not applied): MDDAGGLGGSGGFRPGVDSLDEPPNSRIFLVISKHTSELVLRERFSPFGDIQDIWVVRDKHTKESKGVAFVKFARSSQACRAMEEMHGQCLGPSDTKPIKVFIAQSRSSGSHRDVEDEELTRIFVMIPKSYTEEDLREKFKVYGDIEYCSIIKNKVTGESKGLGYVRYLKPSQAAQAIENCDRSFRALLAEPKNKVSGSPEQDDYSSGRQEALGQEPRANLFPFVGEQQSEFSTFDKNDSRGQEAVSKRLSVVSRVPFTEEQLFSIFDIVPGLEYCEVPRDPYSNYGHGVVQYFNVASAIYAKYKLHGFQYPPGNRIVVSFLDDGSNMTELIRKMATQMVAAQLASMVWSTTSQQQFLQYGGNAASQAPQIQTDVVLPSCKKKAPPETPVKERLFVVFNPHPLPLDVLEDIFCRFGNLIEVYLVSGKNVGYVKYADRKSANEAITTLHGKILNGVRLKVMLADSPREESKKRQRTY

Substance WNV NS3 91-107 peptide gave an IFN-γ ELISpot (SFC/10^6) in assay [1] of 156 SFC/10^6.

For REDQRGSGQVVTYALNTF [NS5 598-615], the “T cell activation of HLA transgenic mice (SFC/10^6) IFN-γ ELISpot, DR2” value (“T cell activation of HLA transgenic mice … DR2” below) in assay [2] turned out to be 252 ± 41 SFC/10^6.

In assay [3], WNV E 458-474 peptide registered an IFN-γ ELISpot (SFC/10^6) of 51 SFC/10^6.

In the case of DPFPESNSPISDLQTEI [NS3 324-340], the “T cell activation of HLA transgenic mice (SFC/10^6) IFN-γ ELISpot, A2” value (from here on “T cell activation of HLA transgenic mice … A2”) in assay [4] was 117 ± 20 SFC/10^6.

In the case of EMGANFKASRVIDSRKSV [NS3 413-430], the “T cell activation of HLA transgenic mice … A2” value in assay [4] is 130 ± 15 SFC/10^6.

WNV NS3 530-547 peptide displayed an IFN-γ ELISpot (SFC/10^6) in assay [1] of 127 SFC/10^6.

As for WNV NS1 228-245 peptide, the IFN-γ ELISpot (SFC/10^6) in assay [1] came out at 84 SFC/10^6.

IDPFQLGLLVVFLATQEV [NS2a 6-23]: the “T cell activation of HLA transgenic mice … DR2” value in assay [2] was found to be 563 ± 41 SFC/10^6.

With LQTEIPDRAWNSGYEWI [NS3 336-352], the “T cell activation of HLA transgenic mice … A2” value in assay [4] came out at 167 ± 35 SFC/10^6.

On to WNV NS3 413-430 peptide, for which the IFN-γ ELISpot (SFC/10^6) in assay [1] worked out at 130 SFC/10^6.

Consider LQHKWNGQDEVQMIVV [NS3 85-100], for which the “T cell activation of HLA transgenic mice … A2” value in assay [4] amounted to 72 ± 9 SFC/10^6.

Take STKATRYLVKTESWILR [prM 114-130]: in assay [2], the “T cell activation of HLA transgenic mice … DR2” value amounted to 101 ± 33 SFC/10^6.

In assay [3], WNV NS2b 59-75 peptide registered an IFN-γ ELISpot (SFC/10^6) of 59 SFC/10^6.

For GSVKEDRLCYGGPWKLQH [NS3 70-87], the “T cell activation of HLA transgenic mice … A2” value in assay [4] is 174 ± 13 SFC/10^6.

Take WNV NS3 199-216 peptide: the IFN-γ ELISpot (SFC/10^6) in assay [3] turned out to be 52 SFC/10^6.

In the case of WNV prM 144-161 peptide, the IFN-γ ELISpot (SFC/10^6) in assay [3] turned out to be 84 SFC/10^6.

WNV NS3 206-223 peptide: the results for the IFN-γ ELISpot (SFC/10^6) in assay [3] and in assay [1] were 323 SFC/10^6 and 108 SFC/10^6, respectively.

WNV NS3 221-237 peptide displayed an IFN-γ ELISpot (SFC/10^6) in assay [1] of 26 SFC/10^6.

Take IRYQTSAVPREHNGNEIV [NS3 241-258]: the “T cell activation of HLA transgenic mice … A2” value in assay [4] amounted to 127 ± 18 SFC/10^6.

For the substance GRIGRNPSQVGDEYCY [NS3 460-475], the “T cell activation of HLA transgenic mice … DR2” value in assay [2] was determined as 123 ± 4 SFC/10^6.

With WNV NS3 343-360 peptide, the IFN-γ ELISpot (SFC/10^6) in assay [1] was 55 SFC/10^6.

In the case of WNV NS3 22-38 peptide, the IFN-γ ELISpot (SFC/10^6) in assay [3] worked out at 155 SFC/10^6.

Turning to LSTKAACPTMGEAHNDKR [E 68-85], in assay [4], the “T cell activation of HLA transgenic mice … A2” value worked out at 372 ± 242 SFC/10^6.

As to WNV NS1 161-178 peptide, the IFN-γ ELISpot (SFC/10^6) in assay [3] stood at 134 SFC/10^6.

KVELGEAAAIFMTATPPG [NS3 304-321]: the “T cell activation of HLA transgenic mice … A2” value in assay [4] is 94 ± 22 SFC/10^6.

As for EIPDVLNSLAVAWMILRA [NS2a 128-145], in assay [2], the “T cell activation of HLA transgenic mice … DR2” value was determined as 384 ± 125 SFC/10^6.

For the substance WNV E 450-467 peptide, the IFN-γ ELISpot (SFC/10^6) in assay [3] was found to be 261 SFC/10^6; in assay [1] it was 205 SFC/10^6.

Take WNV NS3 588-605 peptide: the IFN-γ ELISpot (SFC/10^6) in assay [3] is 42 SFC/10^6.

Take VYRIMTRGLLGSYQAGA [NS3 22-38]: the “T cell activation of HLA transgenic mice … DR2” value in assay [2] was 155 ± 22 SFC/10^6.

With PIVDKNGDVIGLYGNGVI [NS3 138-155], the “T cell activation of HLA transgenic mice … A2” value in assay [4] worked out at 159 ± 10 SFC/10^6.

As to WNV NS3 523-539 peptide, the results for the IFN-γ ELISpot (SFC/10^6) in assay [3] and in assay [1] were 160 SFC/10^6 and 57 SFC/10^6, respectively.

As for WNV NS2b 39-56 peptide, the IFN-γ ELISpot (SFC/10^6) in assay [3] came out at 47 SFC/10^6.

On to WNV NS3 515-532 peptide, for which the figures for the IFN-γ ELISpot (SFC/10^6) in assay [3] and in assay [1] were 95 SFC/10^6 and 140 SFC/10^6, respectively.

For the substance SRNSTHEMYWVSRASGNV [NS5 212-229], in assay [2], the “T cell activation of HLA transgenic mice … DR2” value was 168 ± 13 SFC/10^6.

In assay [3], WNV NS2a 52-66 peptide gave an IFN-γ ELISpot (SFC/10^6) of 516 SFC/10^6.

Consider WNV NS5 212-229 peptide, for which, in assay [3], the IFN-γ ELISpot (SFC/10^6) amounted to 168 SFC/10^6.

On to WNV NS3 455-469 peptide, for which the IFN-γ ELISpot (SFC/10^6) in assay [3] worked out at 200 SFC/10^6.

WNV NS3 241-258 peptide: in assay [1], the IFN-γ ELISpot (SFC/10^6) worked out at 127 SFC/10^6.

WNV NS3 161-177 peptide: the IFN-γ ELISpot (SFC/10^6) was 72 SFC/10^6 in assay [3] and 56 SFC/10^6 in assay [1].

As for WNV NS3 265-282 peptide, the IFN-γ ELISpot (SFC/10^6) in assay [3] came to 169 SFC/10^6; in assay [1] it was 150 SFC/10^6.

Turning to LAVAWMILRAITFTTTSNV [NS2a 136-154], in assay [2], the “T cell activation of HLA transgenic mice … DR2” value is listed as 98 ± 22 SFC/10^6.

In the case of GLTSTRMFLKVRESNTTE [NS1 161-178], the “T cell activation of HLA transgenic mice … DR2” value in assay [2] is recorded as 134 ± 8 SFC/10^6.

For the substance DISWESDAEITGSSERV [NS2b 59-75], in assay [2], the “T cell activation of HLA transgenic mice … DR2” value came to 59 ± 12 SFC/10^6.

In assay [1], WNV NS3 70-87 peptide returned an IFN-γ ELISpot (SFC/10^6) of 174 SFC/10^6.

WNV NS4b 233-250 peptide: the IFN-γ ELISpot (SFC/10^6) in assay [3] is 62 SFC/10^6.

On to ERKILRPRWIDARVYSDH [NS3 588-605], for which the “T cell activation of HLA transgenic mice … DR2” value in assay [2] was found to be 42 ± 4 SFC/10^6.

Substance WNV NS3 336-352 peptide returned an IFN-γ ELISpot (SFC/10^6) in assay [1] of 167 SFC/10^6.

WNV NS3 317-333 peptide: the IFN-γ ELISpot (SFC/10^6) in assay [1] was found to be 151 SFC/10^6.
